According to the supplement of paper PMC10065799, “High-throughput profiling of sequence recognition by tyrosine kinases and SH2 domains using bacterial peptide display” (eLife, 2023):

test system: c-Abl (mouse); assay: phosphorylation enrichment, bacterial display (enrichment ratio); higher = better substrate or ligand; peptides without Tyr show the background
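Further: 11-residue human phosphosite peptides and single-mutation variants displayed on the E. coli surface, counted by deep sequencing, each peptide's frequency after selection divided by its frequency in the unselected input library; frequency after pTyr selection over input frequency; kinase dosed for 20-30% of maximal phosphorylation in three min.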

Sequence	phosphorylation enrichment
SLFPGYNFRFA [P2RX7_Y291_YF]	0.508
SVTCTYSPALS [TP53_Y126_N131S]	1.42
LQLLGHRPVYS [CHST6_Y358_Y358H]	0.418
TTKAKYKTPIY [PLD2_Y573_T577I]	0.695
DDDPEYRKFLE [UPF3B_Y160]	0.577
NFHRGYHLQVL [CD200R1L_Y138]	0.787
SKAYAYVHFDS [PABPC5_Y149_G146A]	0.789
PTQLPYDHKWK [KIT_Y578_E583K]	0.634
KNKNRSKNILP [PTPN11_Y279_Y279S]	0.771
ARMTNCGLPRF [TSPAN12_Y138_Y138C_YF]	0.591
TRTEAYAVSSF	0.476
SHLEDYPFDAE [AKR1B10_Y310_N313D]	0.672
YVGGFYGGCNE [CTSC_Y352]	0.869
EEGESYVCSSD [DCX_Y125]	0.924
EERNPYYSSAR [MCCC2_Y520_G517R]	0.591
GMEIVYVYVKK [DNAI2_Y5]	0.813
EYKDAYTFAAD [BRDT_Y335_K336T]	0.556

Sequence	phosphorylation enrichment
PRAGVYPEKDQ [DNM2_Y626_L621P]	0.865
MSDVPYVMNRG [ACAT1_Y161_N158D]	0.549
NQKGKYFNVER [ANAPC4_Y469_R465Q]	0.588
STTIHYNYMCN [TP53_Y234_C229S]	0.71
FADIAYSYRHG [PAH_Y166_N167S]	0.63
FSGKAYADEEQ [CRIM1_Y826_R831Q]	1.2
DTLASYLDKVR [KRT12_Y139_R135T]	0.495
KDHPDYEFQPR [SOX9_Y172_K173E_YF]	0.509
ERDYTYDELLN [EIF2S2_Y176_E177D]	0.887
EQLQSYQAEII [KRT33A_Y268]	0.988
EARRVYRDIIH [ALDH5A1_Y175_G176R]	0.528
LLVVVYKYRCY [PSEN1_Y154_L153V]	1.65
LSGVIYVILGK [PMP22_Y153_R157G]	1.87
KLFFHYNPKLC [INSR_Y457]	0.855
LAVNPYGPPDL	1.32
AAVDTYCRHNF [HLA-DRB1_Y107_YF]	0.755

target: Jak2 (UniProt O60674); assay: as above
Sequence (O60674 whole entry, looked up): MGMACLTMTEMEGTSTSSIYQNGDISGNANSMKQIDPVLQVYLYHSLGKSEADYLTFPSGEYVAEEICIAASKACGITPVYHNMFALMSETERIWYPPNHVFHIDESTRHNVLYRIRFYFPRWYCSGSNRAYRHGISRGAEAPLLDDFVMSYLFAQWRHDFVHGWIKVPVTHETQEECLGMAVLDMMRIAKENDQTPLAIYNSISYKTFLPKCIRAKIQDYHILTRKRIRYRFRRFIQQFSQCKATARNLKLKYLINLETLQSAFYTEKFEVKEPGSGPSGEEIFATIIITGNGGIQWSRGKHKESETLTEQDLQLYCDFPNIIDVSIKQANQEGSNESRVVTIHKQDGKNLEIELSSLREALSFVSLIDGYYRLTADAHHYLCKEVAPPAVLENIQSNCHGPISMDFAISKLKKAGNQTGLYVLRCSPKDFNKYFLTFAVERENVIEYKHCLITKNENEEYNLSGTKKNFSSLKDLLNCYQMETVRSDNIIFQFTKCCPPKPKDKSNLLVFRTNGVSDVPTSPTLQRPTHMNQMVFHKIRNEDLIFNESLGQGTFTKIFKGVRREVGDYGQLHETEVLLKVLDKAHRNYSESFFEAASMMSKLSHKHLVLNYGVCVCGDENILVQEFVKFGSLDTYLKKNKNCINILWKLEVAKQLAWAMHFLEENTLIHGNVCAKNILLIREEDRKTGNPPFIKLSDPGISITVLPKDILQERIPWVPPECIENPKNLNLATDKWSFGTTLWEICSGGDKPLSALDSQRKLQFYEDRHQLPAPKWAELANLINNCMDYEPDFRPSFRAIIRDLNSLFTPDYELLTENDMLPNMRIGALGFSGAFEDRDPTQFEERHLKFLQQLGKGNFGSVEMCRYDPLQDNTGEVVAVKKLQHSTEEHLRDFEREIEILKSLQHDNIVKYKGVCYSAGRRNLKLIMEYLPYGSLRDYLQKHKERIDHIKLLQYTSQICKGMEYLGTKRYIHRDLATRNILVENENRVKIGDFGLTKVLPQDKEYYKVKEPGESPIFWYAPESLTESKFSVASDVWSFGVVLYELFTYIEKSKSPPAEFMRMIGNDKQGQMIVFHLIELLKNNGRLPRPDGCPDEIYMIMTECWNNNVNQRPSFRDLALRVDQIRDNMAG

Sequence	phosphorylation enrichment
SLFPGYNFRFA [P2RX7_Y291_YF]	0.673
SVTCTYSPALS [TP53_Y126_N131S]	1.42
LQLLGHRPVYS [CHST6_Y358_Y358H]	0.552
TTKAKYKTPIY [PLD2_Y573_T577I]	0.587
DDDPEYRKFLE [UPF3B_Y160]	1.06
NFHRGYHLQVL [CD200R1L_Y138]	0.54
SKAYAYVHFDS [PABPC5_Y149_G146A]	1.05
PTQLPYDHKWK [KIT_Y578_E583K]	0.626
KNKNRSKNILP [PTPN11_Y279_Y279S]	0.632
ARMTNCGLPRF [TSPAN12_Y138_Y138C_YF]	0.492
TRTEAYAVSSF	0.587
SHLEDYPFDAE [AKR1B10_Y310_N313D]	1.3
YVGGFYGGCNE [CTSC_Y352]	1.06
EEGESYVCSSD [DCX_Y125]	1.21
EERNPYYSSAR [MCCC2_Y520_G517R]	0.923
GMEIVYVYVKK [DNAI2_Y5]	0.964
EYKDAYTFAAD [BRDT_Y335_K336T]	1.11

Sequence	phosphorylation enrichment
PRAGVYPEKDQ [DNM2_Y626_L621P]	1.08
MSDVPYVMNRG [ACAT1_Y161_N158D]	0.652
NQKGKYFNVER [ANAPC4_Y469_R465Q]	0.489
STTIHYNYMCN [TP53_Y234_C229S]	0.792
FADIAYSYRHG [PAH_Y166_N167S]	0.727
FSGKAYADEEQ [CRIM1_Y826_R831Q]	1.31
DTLASYLDKVR [KRT12_Y139_R135T]	0.42
KDHPDYEFQPR [SOX9_Y172_K173E_YF]	0.665
ERDYTYDELLN [EIF2S2_Y176_E177D]	1.21
EQLQSYQAEII [KRT33A_Y268]	1.15
EARRVYRDIIH [ALDH5A1_Y175_G176R]	0.475
LLVVVYKYRCY [PSEN1_Y154_L153V]	0.994
LSGVIYVILGK [PMP22_Y153_R157G]	2.72
KLFFHYNPKLC [INSR_Y457]	1.47
LAVNPYGPPDL	1.03
AAVDTYCRHNF [HLA-DRB1_Y107_YF]	0.88

target: FGFR1 (UniProt P11362); assay: as above
Sequence (P11362 whole entry, looked up): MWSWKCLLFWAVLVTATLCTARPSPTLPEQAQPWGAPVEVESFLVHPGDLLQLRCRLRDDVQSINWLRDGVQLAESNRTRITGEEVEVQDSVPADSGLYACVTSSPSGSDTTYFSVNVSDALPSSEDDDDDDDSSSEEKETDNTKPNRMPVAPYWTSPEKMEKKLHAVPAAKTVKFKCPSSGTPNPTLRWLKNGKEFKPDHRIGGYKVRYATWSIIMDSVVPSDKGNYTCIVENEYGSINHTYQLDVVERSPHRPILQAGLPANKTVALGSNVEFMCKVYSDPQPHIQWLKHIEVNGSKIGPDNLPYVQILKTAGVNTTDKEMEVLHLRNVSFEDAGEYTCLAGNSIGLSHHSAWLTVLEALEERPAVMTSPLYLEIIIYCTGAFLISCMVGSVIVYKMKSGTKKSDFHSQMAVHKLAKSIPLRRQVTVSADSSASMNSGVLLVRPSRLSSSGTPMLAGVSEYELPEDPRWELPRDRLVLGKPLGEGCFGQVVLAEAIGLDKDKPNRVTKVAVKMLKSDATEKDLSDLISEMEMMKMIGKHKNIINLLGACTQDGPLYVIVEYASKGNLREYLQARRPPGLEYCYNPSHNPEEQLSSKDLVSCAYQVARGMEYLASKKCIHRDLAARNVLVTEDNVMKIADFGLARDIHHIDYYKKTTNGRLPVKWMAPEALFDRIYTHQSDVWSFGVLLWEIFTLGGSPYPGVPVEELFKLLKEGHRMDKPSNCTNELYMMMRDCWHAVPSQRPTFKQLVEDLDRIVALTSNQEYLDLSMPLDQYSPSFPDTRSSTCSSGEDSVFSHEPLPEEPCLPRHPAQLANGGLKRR

Sequence	phosphorylation enrichment
SLFPGYNFRFA [P2RX7_Y291_YF]	0.433
SVTCTYSPALS [TP53_Y126_N131S]	0.396
LQLLGHRPVYS [CHST6_Y358_Y358H]	0.425
TTKAKYKTPIY [PLD2_Y573_T577I]	0.46
DDDPEYRKFLE [UPF3B_Y160]	0.669
NFHRGYHLQVL [CD200R1L_Y138]	0.453
SKAYAYVHFDS [PABPC5_Y149_G146A]	0.445
PTQLPYDHKWK [KIT_Y578_E583K]	0.58
KNKNRSKNILP [PTPN11_Y279_Y279S]	0.531
ARMTNCGLPRF [TSPAN12_Y138_Y138C_YF]	0.387
TRTEAYAVSSF	0.373
SHLEDYPFDAE [AKR1B10_Y310_N313D]	0.467
YVGGFYGGCNE [CTSC_Y352]	0.639
EEGESYVCSSD [DCX_Y125]	0.676
EERNPYYSSAR [MCCC2_Y520_G517R]	0.487
GMEIVYVYVKK [DNAI2_Y5]	0.967
EYKDAYTFAAD [BRDT_Y335_K336T]	0.511

Sequence	phosphorylation enrichment
PRAGVYPEKDQ [DNM2_Y626_L621P]	0.642
MSDVPYVMNRG [ACAT1_Y161_N158D]	0.403
NQKGKYFNVER [ANAPC4_Y469_R465Q]	0.361
STTIHYNYMCN [TP53_Y234_C229S]	0.629
FADIAYSYRHG [PAH_Y166_N167S]	0.562
FSGKAYADEEQ [CRIM1_Y826_R831Q]	0.459
DTLASYLDKVR [KRT12_Y139_R135T]	0.352
KDHPDYEFQPR [SOX9_Y172_K173E_YF]	0.712
ERDYTYDELLN [EIF2S2_Y176_E177D]	0.558
EQLQSYQAEII [KRT33A_Y268]	0.54
EARRVYRDIIH [ALDH5A1_Y175_G176R]	0.357
LLVVVYKYRCY [PSEN1_Y154_L153V]	1.08
LSGVIYVILGK [PMP22_Y153_R157G]	0.867
KLFFHYNPKLC [INSR_Y457]	0.534
LAVNPYGPPDL	0.798
AAVDTYCRHNF [HLA-DRB1_Y107_YF]	0.426

target: EPHB1 (UniProt P54762); assay: as above
Sequence (P54762 whole entry, looked up): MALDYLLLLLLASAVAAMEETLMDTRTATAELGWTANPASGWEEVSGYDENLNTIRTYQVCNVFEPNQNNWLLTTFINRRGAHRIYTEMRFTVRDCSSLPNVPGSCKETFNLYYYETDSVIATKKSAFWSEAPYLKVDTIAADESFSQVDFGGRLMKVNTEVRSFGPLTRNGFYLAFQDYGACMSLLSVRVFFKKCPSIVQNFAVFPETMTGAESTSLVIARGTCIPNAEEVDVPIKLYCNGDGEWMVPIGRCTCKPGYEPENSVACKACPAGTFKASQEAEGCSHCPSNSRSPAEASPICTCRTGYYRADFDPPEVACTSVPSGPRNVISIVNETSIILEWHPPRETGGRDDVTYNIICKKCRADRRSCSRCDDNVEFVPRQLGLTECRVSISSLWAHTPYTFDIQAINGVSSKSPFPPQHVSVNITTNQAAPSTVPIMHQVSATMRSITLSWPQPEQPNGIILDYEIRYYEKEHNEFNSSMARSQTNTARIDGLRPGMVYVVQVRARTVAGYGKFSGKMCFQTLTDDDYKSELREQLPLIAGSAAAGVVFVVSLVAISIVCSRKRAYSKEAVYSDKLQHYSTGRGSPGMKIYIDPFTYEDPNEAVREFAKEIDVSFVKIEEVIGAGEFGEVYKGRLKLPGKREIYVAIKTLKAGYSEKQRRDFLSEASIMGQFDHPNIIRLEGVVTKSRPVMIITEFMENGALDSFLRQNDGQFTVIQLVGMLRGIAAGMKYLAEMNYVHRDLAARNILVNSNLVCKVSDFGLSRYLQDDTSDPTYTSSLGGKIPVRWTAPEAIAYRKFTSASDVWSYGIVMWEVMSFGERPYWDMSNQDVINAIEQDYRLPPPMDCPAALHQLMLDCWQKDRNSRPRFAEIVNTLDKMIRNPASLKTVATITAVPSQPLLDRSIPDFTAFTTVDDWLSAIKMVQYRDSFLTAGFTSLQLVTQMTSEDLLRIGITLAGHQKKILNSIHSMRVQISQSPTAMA

Sequence	phosphorylation enrichment
SLFPGYNFRFA [P2RX7_Y291_YF]	0.614
SVTCTYSPALS [TP53_Y126_N131S]	0.673
LQLLGHRPVYS [CHST6_Y358_Y358H]	0.462
TTKAKYKTPIY [PLD2_Y573_T577I]	0.542
DDDPEYRKFLE [UPF3B_Y160]	0.612
NFHRGYHLQVL [CD200R1L_Y138]	0.483
SKAYAYVHFDS [PABPC5_Y149_G146A]	0.549
PTQLPYDHKWK [KIT_Y578_E583K]	0.484
KNKNRSKNILP [PTPN11_Y279_Y279S]	0.686
ARMTNCGLPRF [TSPAN12_Y138_Y138C_YF]	0.292
TRTEAYAVSSF	0.442
SHLEDYPFDAE [AKR1B10_Y310_N313D]	0.516
YVGGFYGGCNE [CTSC_Y352]	0.54
EEGESYVCSSD [DCX_Y125]	0.814
EERNPYYSSAR [MCCC2_Y520_G517R]	0.472
GMEIVYVYVKK [DNAI2_Y5]	0.731
EYKDAYTFAAD [BRDT_Y335_K336T]	0.553

Sequence	phosphorylation enrichment
PRAGVYPEKDQ [DNM2_Y626_L621P]	0.734
MSDVPYVMNRG [ACAT1_Y161_N158D]	0.4
NQKGKYFNVER [ANAPC4_Y469_R465Q]	0.353
STTIHYNYMCN [TP53_Y234_C229S]	0.603
FADIAYSYRHG [PAH_Y166_N167S]	0.423
FSGKAYADEEQ [CRIM1_Y826_R831Q]	0.581
DTLASYLDKVR [KRT12_Y139_R135T]	0.403
KDHPDYEFQPR [SOX9_Y172_K173E_YF]	1.05
ERDYTYDELLN [EIF2S2_Y176_E177D]	0.742
EQLQSYQAEII [KRT33A_Y268]	0.524
EARRVYRDIIH [ALDH5A1_Y175_G176R]	0.318
LLVVVYKYRCY [PSEN1_Y154_L153V]	2.05
LSGVIYVILGK [PMP22_Y153_R157G]	0.93
KLFFHYNPKLC [INSR_Y457]	0.631
LAVNPYGPPDL	0.846
AAVDTYCRHNF [HLA-DRB1_Y107_YF]	0.562
